# In the supplement of paper PMC7877785:
# ± gives the uncertainty stated by the source.
# Assay: self-splicing fitness, log relative to wild type (ln ratio); higher = more splicing; Tetrahymena group I intron in knt gene, E. coli kanamycin selection, DiMSum; sequences stand for … in CUCUCU…GGAGGGAAAAGUUAUCAGGCAUGCACCUGGUAGCUAGUCUUUAAACCAAUAGAUUGCAUCGGUUUAAAAGGCAAGACCGUCAAAUUGCGGGAAAGGGGUCAACAGCCGUUCAGUACCAAGUCUCAGGGGAAACUUUGAGAUGGCCUUGCAAAGGGUAUGGUAAUAAGCUGACGGACAUGGUCCUAACCACGCAGCCAAGUCCUAAGUCAACAGAUCUUCUGUUGAUAUGGAUGCAGUUCACAGACUAAAUGUCGGUCGGGGAAGAUGUAUUCUUCUCAUAAGAUAUAGUCGGACCUCUCCUUAAUGGGAGCUAGCGGAUGAAGUGAUGCAACACUGGAGCCGCUGGGAACUAAUUUGUAUGCGAAAGUAUAUUGAUUAGUUUUGGAGUACUCGUGGUCG
# How it was run: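 A randomised library covering all eight P1ex-region intron nucleotides was built with the intron in the knt kanamycin-resistance gene on pET-22b(+) and held in E. coli BL21(DE3). Cells were grown overnight at 37°C or 30°C on LB agar, with or without 25 μg/mL kanamycin, plus 100 μg/mL carbenicillin, 50 μM IPTG and 0.2% rhamnose, and pooled colonies were amplicon-sequenced on an Illumina HiSeq 2500. DiMSum fitness is the error-weighted combination of wild-type-normalised replicate fold changes, kanamycin versus none.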
Sequence,self-splicing fitness (ln) (30 °C),self-splicing fitness (ln) (37 °C)
GCUGAGCAAUAUUACGGGGC,-3.02 ± 0.24,-3.85 ± 0.42
GCUGAGCAAUAUUACGUAGU,-2.86 ± 0.16,-1.71 ± 0.15
GCUGAGCAAUAUUACGUAUC,-2.37 ± 0.13,0.164 ± 0.1
GCUGAGCAAUAUUACGUUCU,-0.944 ± 0.12,-0.758 ± 0.15
GCUGAGCAAUAUUACGUUUU,-4.08 ± 0.26,-3.21 ± 0.22
GCUUAGCAAUAUUACGAAAC,-1.22 ± 0.16,-0.448 ± 0.24
GCUUAGCAAUAUUACGCACA,-1.02 ± 0.14,0.3 ± 0.15
GCUUAGCAAUAUUACGCACU,-0.857 ± 0.11,0.197 ± 0.12
GCUUAGCAAUAUUACGCAUA,-1.58 ± 0.14,-0.612 ± 0.11
GCUUAGCAAUAUUACGCCGU,-2.31 ± 0.21,-0.553 ± 0.18
GCUUAGCAAUAUUACGCCUU,-2.7 ± 0.21,0.179 ± 0.19
GCUUAGCAAUAUUACGCGCG,-0.0422 ± 0.094,-0.149 ± 0.13
GCUUAGCAAUAUUACGCGUU,-0.427 ± 0.096,0.0522 ± 0.1
GCUUAGCAAUAUUACGGACA,-0.409 ± 0.13,-1.15 ± 0.13
GCUUAGCAAUAUUACGGAGU,-2.9 ± 0.26,-0.418 ± 0.19
GCUUAGCAAUAUUACGGGCU,-2.79 ± 0.21,-3.26 ± 0.23
GCUUAGCAAUAUUACGGGUU,-1.95 ± 0.094,-1.43 ± 0.14
GCUUAGCAAUAUUACGGUUA,-0.517 ± 0.11,-0.548 ± 0.11
GCUUAGCAAUAUUACGUCAA,-2.67 ± 0.26,-1.66 ± 0.2
GCUUAGCAAUAUUACGUGAA,-0.117 ± 0.064,0.311 ± 0.074
GCUUAGCAAUAUUACGUGCU,-2.78 ± 0.19,-1.41 ± 0.18
GCUUAGCAAUAUUACGUGUG,-1.91 ± 0.054,-1.14 ± 0.066
GCUUAGCAAUAUUACGUUUA,-1.73 ± 0.13,-1.17 ± 0.12
GGAAAGCAAUAUUACGACUA,-0.62 ± 0.12,-0.129 ± 0.12

Sequence,self-splicing fitness (ln) (30 °C),self-splicing fitness (ln) (37 °C)
GGAAAGCAAUAUUACGACUC,0.0221 ± 0.11,-0.214 ± 0.19
GGAAAGCAAUAUUACGAUCU,-3.9 ± 0.42,-1.68 ± 0.32
GGAAAGCAAUAUUACGAUGA,-1.68 ± 0.2,-0.498 ± 0.2
GGAAAGCAAUAUUACGAUUC,-1.84 ± 0.16,-0.276 ± 0.16
GGAAAGCAAUAUUACGCAAC,-3.25 ± 0.24,-1.02 ± 0.23
GGAAAGCAAUAUUACGCCAA,-2.36 ± 0.41,-0.527 ± 0.29
GGAAAGCAAUAUUACGCCGC,-2.48 ± 0.41,-1.89 ± 0.49
GGAAAGCAAUAUUACGCUAC,-1.91 ± 0.26,-1.86 ± 0.33
GGAAAGCAAUAUUACGGACA,-0.913 ± 0.092,0.104 ± 0.097
GGAAAGCAAUAUUACGGAGU,-3.76 ± 0.23,-1.73 ± 0.18
GGAAAGCAAUAUUACGGCAA,-0.443 ± 0.12,-0.141 ± 0.11
GGAAAGCAAUAUUACGGCGG,-2.47 ± 0.19,-1.45 ± 0.2
GGAAAGCAAUAUUACGGCGU,-0.39 ± 0.071,-0.31 ± 0.1
GGAAAGCAAUAUUACGGUGU,-2.29 ± 0.092,-1.15 ± 0.12
GGAAAGCAAUAUUACGUAGG,-3.23 ± 0.12,-2.23 ± 0.14
GGAAAGCAAUAUUACGUAUA,-2.2 ± 0.16,-1.16 ± 0.18
GGAAAGCAAUAUUACGUGCC,-1.94 ± 0.19,-2.01 ± 0.25
GGAAAGCAAUAUUACGUGGU,-3.11 ± 0.18,-1.9 ± 0.16
GGACAGCAAUAUUACGAAAG,-3.73 ± 0.33,-2.88 ± 0.43
GGACAGCAAUAUUACGAACC,-1.23 ± 0.27,-0.895 ± 0.23
GGACAGCAAUAUUACGAACU,-0.198 ± 0.08,0.442 ± 0.083
GGACAGCAAUAUUACGAUAA,-1.81 ± 0.073,-0.876 ± 0.08
GGACAGCAAUAUUACGCAGC,-1.1 ± 0.083,-0.558 ± 0.085
